The record followed here is the DeepSol protein solubility set.

The nature of the data set: soluble on expression in E. coli; label from the status in PepcDB or PDB records.
Take “MGSDKIHHHHHHMTQVPPSASPADLLAVLERIATALERQGAPAVPANSLDGADAFVWHAAESWLEPVCRVNRVDIALLQGIERQRQTLYDNTLRFAHGLPANNALLWGARGTGKSSLVKAVHASVNQALTAKGAAPVALVEIHREDIPTLPRLLRILAASGRPCLLFCDDLSFDGNDSSYKSLKAVLEGGIEGRPDTVIFYATSNRRHLLAREMVENEQSTALHAGEAVEEKVSLSDRFGLWLGFHNVDQPTYFDIVDGYARAYGLDIETEDLHREAREWSMARGSRSGRTAWQFIQDLAGRLGKTLE”: the “soluble on expression in E. coli” value was “not soluble”.

“MCTALMAIPEDGDTEVVSEKTFKVFSLLNLDAPYLHDKAHVTEEEEITGCCGRRKGALIATMQVDEIGVMPGMTSKISLTVENKTKKRKKWMRKKDNHECVLLSLCQQLDFVAVNRNDPMMIDRKSITIAVESHGTCKTKAGVGPQTKEIEFSVPPNLPPTSIHANRLVTVSYFFKLDLDHFDLVLPVIVGSVKSSASNGSEK”: the “soluble on expression in E. coli” value is on record as “not soluble”. With “MGSDKIHHHHHHMLTTLAIFNYRSLREIVLPLGQLNLITGANGSGKSNLYKALRLLAQTAQGGVVNALAQEGGLDSSFWAGPENFTKSMLAGDTAIEATVRQAPKRLKLGFAGEDFSYLIELGLPEPDATTLFGLDPQIKREAIWNGPKYRPSTVLVERRGPMVKSRSADGKGWIILGAHLQTGDSLFTELADPERCPEVLKLRDSIRAWRFYDHFRTDAEAPARRPQLGTATPVLHHDGRDLASAIQTIFEIGDKSAFDHAVSDAFPGAKVRIEPQAGGILVLAFHQHGLLRPLNASELSDGTLRYLLLIAALLTPRPPELMVLNEPETSLHPDLLPALARLIAKVSEECQLWVVSHANRLINALSQFEHCNTLALDKTLGQTQIQGQDLLNTPSWLWQNR” the entry was “not soluble”.

As for “QIVLTQSPAIMSASLGDRVTMTCTASSSVSSSYLHWYQQKPGSSPKLWIYSTSNLASGVPARFSGSGSGTSYSLTISSMEAEDAATYYCHQFHRSLTFGSGTKLE”, the “soluble on expression in E. coli” value is on record as “soluble”. With “MPDAVYVFTPKGHIRALPRGATALDFAYAVHSDLGNQCVAVKINNELLPLRTELKSGDIVEVVTAPYSKLEHHHHHH” the entry was “not soluble”; with “MMDKNQLEQEFHKAMLNIYQEALNLPQPYKATRFLQIVNEFGGKEAADKLLSTGEKKTQTGFTELILSGGGVHALKYSMEYLVLQKPWCDLFTEEQLAVARKRLERVGFVFPK”, “not soluble”. In the case of “MGSDKIHHHHHHMEMVMKNKRVAIIGAGPSGIAQLRAFESAEKQGHEIPELVCFEKQDTWGGQWNYSWRTGTDSYGEPVHSSMYRNLWSNGPKEVLEFAEYSFDEHFGKPISSYPPREVLWDYIAGRAKKSNVEKYIKFAHVVRWVSFDEATKLFTVTVENLRTGETSSDTYDNVIVGAGHFSFPNVPHFDGVETFPGQIMHAHEFRGAEAVADKDILLIGASYSAEDIGTQAYKMGARSVTFSYRSNPMGYEWPEEMTELPLVERFDGSEVHFVNGEKRKVDIVVFCTGYLHHYPFMPSELTLSSPNNLYPDTLYRGVVSEANNQLFWLGAQDQWLTFNMFDAQAWYVRDVILGRVALPSKEAQRNHMDKWLSRFEGLKSENDQIDFQCDYVEDLIDQTDYPSFDLKEVANILKGWVKSKEEDILNYRDYTYTSVMTGTTSVEHHTPWMIELDDSLERYLSEPQEDEARQVYRGKKVRDKA” it was “not soluble”. With “MFSQWVFLSVLALAVPSFAWAEDAVSDLAREQSKAEQGDKRGDELFAEFTRLRQAAETGEPQALFDFGAYFYQQQNYASAREWWGKAAAAGMVRAQIQLAMLYRDGDGGPQDKTEAARWFRKAAEQGDAAAQNEMGVLYWRGEGVDQDRVKAGTWFERAAASGSEDAETNLGWFYLDDSQGVYSATSDEEAALLDRYAGSREKAFQWFCKAATQGDARAQFKVGEAYWNGSGAGMNKLQARLWLEKAAQQQDADAIAWLESAANAAWYTRLENWIHAALDGELSGVADCSGAADRRHSGRGMEGAPSDPEAVEASAEDAQQAVEAASQ” the entry was “not soluble”. On to “MQNHVISLASAAERRAHIAATFGVRGIPFQFFDALMPSEELNRMMAELVPGLAKQHLLSEVEKACFMSHAVLWKQALDEGLPYVAVFEDDVLLGKDAEKFLAEDTWLEERFDKDSAFIVRLETMFAKVIVRPDKVLNYENRSFPLLESEHWGTAGYIISREAMRFFLERFAVLPAEWIKAVDWMMFTYFFDKEGMPVYQVNPALCTQELHYAKFLSKNSMLGSDLEKDREQERRHRRSLKVMFDLKRALGKFGREKKKRMERQRQAELEKAYGRRVISFK”, for which the “soluble on expression in E. coli” value is “not soluble”. With “MKHLLPFATVILALGIVGCQKVETTAPEKIKQDTQTKQQVSVTPERPSDAELNAVKVYHHMKYMEATAKLAGGTNKLLHTKKLPTEGSDAVVTPALDHLYSKGVIDLSNGPVTIEYPEVDEGRYYSIHVTDQEHYTIFDKIHPVGKFTFVRKGKNMEVPEGATVIESPGDYPHLFIRVQVKTPEDLVNALSIQEKITLTANSSKTLIVDNPIKHTLATHDVYSQNKELMVSSVNFTHQDYLRVSEYLGVVAPNMGPTGNIGLFGPIDSNEPNSDDYLFRAVGIIGHLGLPLEHAYYGPYFTNCENQLLMGDKTEVFTLPYEPEGVELFWSVTRYSALTRNTLPGKNDLINAYNTKPDANGNISITFSADSPNDGTYWMPVNSGEPYYFVVRYYKPDVNNLPEKPCSLEHHHHHH” the entry was “not soluble”.

“MTENFFGKTLAARPVEAIPGMLEFDIPVHGDNRGWFKENFQKEKMLPLGFPESFFAEGKLQNNVSFSRKNVLRGLHAEPWDKYISVADGGKVLGTWVDLREGETFGNTYQTVIDASKSIFVPRGVANGFQVLSDFVAYSYLVNDYWALELKPKYAFVNYADPSLDIKWENLEEAEVSEADENHPFLKDVKPLRKEDL”: the “soluble on expression in E. coli” value is reported as “soluble”. In the case of “MGSDKIHHHHHHMNIGLLEALDQLEEEKGISKEEVIPILEKALVSAYRKNFGNSKNVEVVIDRNTGNIKVYQLLEVVEEVEDPATQISLEEAKKIDPLAEVGSIVKKELNVKNFGRIAAQTAKQVLIQRIRELEKEKQFEKYSELKGTVTTAEVIRVMGEWADIRIGKLETRLPKKEWIPGEEIKAGDLVKVYIIDVVKTTKGPKILVSRRVPEFVIGLMKLEIPEVENGIVEIKAIAREPGVRTKVAVASNDPNVDPIGACIGEGGSRIAAILKELKGEKLDVLKWSDDPKQLIANALAPATVIEVEILDKENKAARVLVPPTQLSLAIGKGGQNARLAAKLTGWKIDIKPIMNL” it was “not soluble”; in that of “MTDGTPTTLTDRIEAALRDVRDPNADLSVFDAGFVENIDAADGEVTIEADLTALDGQTSTQVVQAMLHAVDDVDGVDSVHVERTTPTGEGNAGVESFDRVVAVASAKGGVGKSTVATHLACALAADNDVALFDADIHGPNVPELLDVSGPVHSSEEGDPLPVRAGDMDVMSVGLMESGAPLAWRGAMAHDALNDLFENTAWRNDDVLVLDLPPGTGDVVLTTLQEVPVDGVVVVTTPFHASVSDTSRTVELFRDNDVPVLGTVVNMAEYVCDCCGEPNDLFTGDALGDLDAEVLAELPFSHDLQGTPAPGSVPDAVSSLGDAVESALDTAGEVGVDPTADIRDLQPQERKDRVRERFTALDSGEPFVLVSDRDPTPVGQFLGRLAEAPREAFDPFEVRRETPEAWVLETAKPLEHHHHHH”, “soluble”. For the sequence “MGSDKIHHHHHHMRLAAATGFSFVGLRVIAVTPNERVYDLSPGSPLLAATQQALKETALYVLDTEFLQVNADTTREAWLPALEAAGALGAKTFTIAAGDDNIAPLTDTIGAMVDDARDFGVTPALEPISYRSVHSIPQAAAIARDSGGKVVADTLHMARFGATPEELTDVTDVLGVLQLCDSPLQRPADLDGLVTESRSLRLAPGEGEQNLLTFVNALDSNVPLSVETPNDGEVASRGDAGWINHLYNTTQALLEKIEEAV”, the “soluble on expression in E. coli” value was “not soluble”. Consider “GMIGDGIENSPLLTDLAFPYRLLGAGKESRECLFLLHGSGVDETTLVPLARRIAPTATLVAARGRIPQEDGFRWFERIDPTRFEQKSILAETAAFAAFTNEAAKRHGLNLDHATFLGYSNGANLVSSLMLLHPGIVRLAALLRPMPVLDHVPATDLAGIRTLIIAGAADETYGPFVPALVTLLSRHGAEVDARIIPSGHDIGDPDAAIVRQWLAGPIAIAQAD”, for which the “soluble on expression in E. coli” value is “soluble”.
